# Experimental data: US12643954B2, “Anti-CD36 antibodies and their use to treat cancer” (ONA Therapeutics, S.L., priority 2020, dated 2026)
# Assays:
# [1] = test system: OVCAR-3 cells; experiment: OVCAR-3 orthotopic mouse model of ovarian cancer (Example 9); assay type: in vivo
# Procedure: Studies of the effects of the ONA-0-v1 and 1G04 anti-CD36 antibodies on ovarian cancer were performed in NSG mice (immuno-deficient). The studies included only female mice. All mice were inoculated with commercially available OVCAR-3 (ATCC) cancer cells. OVCAR-3 cells were derived from a human progressive adenocarcinoma of the ovary (i.e., from an ovarian cancer). For each mouse, a piece of an OVCAR-3 xenograft was implanted orthotopically. Prior to inoculation, the OVCAR-3 cells were cultured in a humidified incubator at 37° C. with 5% CO2, and were grown in RPMI-1640 supplemented with 5 μg ml^−1 penicillin/streptomycin, 0.01 mg/ml bovine insulin and 20% FBS (GIBCO).
# Treatment of the implanted mice began 7 days after implantation with the OVCAR-3 tumor pieces. Inoculated mice were divided into one of three treatment groups: vehicle injection control (n=9), ONA-0-v1 treatment (n=9), or 1G04 treatment (n=9). ONA-0-v1 antibody treatments were administered via intraperitoneal (i.p.) injection daily at a dose of 3 mg/kg. 1G04 antibody treatments were administered via i.p. injection TIW (three-times weekly) at a dose of 10 mg/kg. Control mice received an equal volume of vehicle daily. […] Mice were sacrificed at the end of the treatment period. Upon sacrifice, organs and tissues were collected for performance of necropsy and histopathology analysis.
# [2] = target: T1, cells overexpressing human CD36 (Homo sapiens, UniProt P16671); experiment: FACS binding to cells overexpressing human CD36
# T1 construct: expressed in transfected cells
# Procedure: For FACS analysis, cells were trypsinized, collected in a 15 mL tube and diluted in washing buffer (2% FBS in PBS). Cells were then centrifuged at 1500 rpm for 5 min at 4° C., supernatant was discarded, and cells were resuspended in fresh washing buffer. Anti-CD36 antibodies were either omitted (control wash buffer treatment) or serially diluted in washing buffer (dilution range up to 100 nM), and then added to the cells. Incubation was performed on ice for 1 hour. Cells were then centrifuged at 1500 rpm for 5 min at 4° C., supernatant was discarded, and cells were resuspended in fresh washing buffer. Finally, cells were incubated with a […] (BV421 Rat Anti-Mouse IgA, Becton Dickinson, reference 743293) diluted 1:100 in washing buffer, washed and analysed by FACS.
# [3] = test system: OVCAR-3 cells; experiment: OVCAR-3 orthotopic mouse model of ovarian cancer (Example 7); assay type: in vivo
# Procedure: Studies of the effects of the ONA-0-v1 anti-CD36 antibody on ovarian cancer were performed in NSG mice (immuno-deficient). The studies included only female mice. All mice were inoculated with commercially available OVCAR-3 (ATCC) cancer cells. OVCAR-3 cells were derived from a human progressive adenocarcinoma of the ovary (i.e., from an ovarian cancer). Prior to inoculation, the OVCAR-3 cells were cultured in a humidified incubator at 37° C. with 5% CO2, and were grown in RPMI-1640 supplemented with 5 μg ml^−1 penicillin/streptomycin, 0.01 mg/ml bovine inulin and 20% FBS (GIBCO).
# For each mouse, a piece of an OVCAR-3 xenograft was implanted orthotopically. […] Mice implanted with OVCAR-3 also develop metastases in both the peritoneal wall and liver.
# Treatment of the implanted mice began 23 days after implantation with the OVCAR-3 tumor pieces. Inoculated mice were divided into one of two treatment groups: vehicle injection control (n=9) or ONA-0-v1 treatment (n=9). Antibody treatments were administered via intraperitoneal (i.p.) injection daily at a dose of 3 mg/kg, while control mice received an equal volume of vehicle on the same schedule. Mice were sacrificed at the end of the treatment period. Upon sacrifice, organs and tissues were collected for performance of immunohistochemistry analysis.
# [4] = test system: HCT-116 cells; experiment: HCT-116 orthotopic mouse model of colon cancer (Example 8); assay type: in vivo
# Procedure: Studies of the effects of the ONA-0-v1 anti-CD36 antibody on colon cancer were performed in BALB/c nude mice (immuno-deficient). The studies included only female mice. All mice were inoculated with commercially available HCT-116 (ATCC) cancer cells, transduced with a retroviral vector expressing luciferase. HCT-116 cells were derived from a human colorectal carcinoma (i.e., from a colon cancer). Prior to inoculation, the HCT-116 cells were cultured in a humidified incubator at 37° C. with 5% CO2, and were grown in McCoy's 5A medium supplemented with 5 μg ml^−1 penicillin/streptomycin and 10% FBS (GIBCO).
# For each mouse, 2×10^6 HCT-116 cells were inoculated via orthotopic injection. Each mouse was imaged after inoculation and one week later and liver metastasis were confirmed by ex vivo luminescence prior to start of treatment. Treatment began 14 days after inoculation with the HCT-116 cells. Inoculated mice were divided into one of two treatment groups: vehicle injection control (n=10) or ONA-0-v1 treatment (n=10). Antibody treatments were administered via intraperitoneal (i.p.) injection daily at a dose of 3 mg/kg, while control mice received an equal volume of vehicle on the same schedule. At 7, 14, and 21 days after start of treatment, all mice were imaged via IVIS. Mice were sacrificed at the end of the treatment period (day 25). Upon sacrifice, organs and tissues were collected for performance of necropsy, ex-vivo IVIS, and histopathology.
# T1 sequence (P16671 whole entry): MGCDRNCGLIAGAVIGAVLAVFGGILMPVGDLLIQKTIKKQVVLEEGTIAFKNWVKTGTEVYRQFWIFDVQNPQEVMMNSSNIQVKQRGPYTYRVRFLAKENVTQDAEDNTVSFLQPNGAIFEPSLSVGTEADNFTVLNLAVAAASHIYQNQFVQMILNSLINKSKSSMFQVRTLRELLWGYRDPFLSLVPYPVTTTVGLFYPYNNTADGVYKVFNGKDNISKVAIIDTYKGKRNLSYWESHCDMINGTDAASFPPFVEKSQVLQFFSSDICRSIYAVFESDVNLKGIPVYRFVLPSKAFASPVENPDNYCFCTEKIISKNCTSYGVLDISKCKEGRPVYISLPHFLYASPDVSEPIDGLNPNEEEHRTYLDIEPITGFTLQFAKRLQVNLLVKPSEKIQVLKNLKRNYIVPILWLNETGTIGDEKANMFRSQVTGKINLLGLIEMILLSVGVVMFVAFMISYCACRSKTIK
molecule,measurement,setting,value
"ONA-0-v1: murine IgA anti-CD36 antibody; heavy chain SEQ ID NO: 5, light chain SEQ ID NO: 7 (antibody, ONA-0-v1 heavy chain; ONA-0-v1 light chain) heavy: QVQLKQSGADLVRPGASVKLSCKASGYTFTDYYINWVKQRPGQGLEWIARIYPGSGNTYYNEKFKGKATLTAEKSSSTAYMQLSSLTSEDSAVYFCARGIGGGFGMDYWGQGTSVTVSSESARNPTIYPLTLPPVLCSDPVIIGCLIHDYFPFGTMNVTWGKSGKDITTVNFPPALASGGRYTMSSQLTLPAVECPEGESVKCSVQHDSNPVQELDVNCSPTPPPPITIPSCQPSLSLQRPALEDLLLGSDASITCTLNGLRNPEGAAFTWEPSTGKDAVQKKAAQNSCGCYSVSSVLPGCAERWNSGASFKCTVTHPESGTLTGTIAKVTVNTFPPQVHLLPPPSEELALNELLSLTCLVRAFNPKEVLVRWLHGNEELSPESYLVFEPLKEPGEGATTYLVTSVLRVSAETWKQGDQYSCMVGHEALPMNFTQKTIDRLSGKPTNVSVSVIMSEGDGICY light: SIVMTQTPKFLLVSAGDRITITCKASQSVSDDVAWYQQKPGQSPKLLIYYASNRYTGVPDRFTGSGYGTDFTFTISTVQAEDLAVYFCQQDYSSPLTFGAGTKLEIKRADAAPTVSIFPPSSEQLTSGGASVVCFLNNFYPKDINVKWKIDGSERQNGVLNSWTDQDSKDSTYSMSSTLTLTKDEYERHNSYTCEATHKTSTSPIVKSFNRNEC",decrease in total number of metastases relative to vehicle,"[1]; ONA-0-v1 3 mg/kg i.p. daily, 1G04 10 mg/kg i.p. TIW",approximately 45%
same,mice free of metastasis in the liver,[1]; macroscopic analysis,78%
same,mice having 1-2 mm metastasis in the liver,[1]; macroscopic analysis,17%
same,mice having 1-2 mm metastasis in the peritoneal wall,[1]; macroscopic analysis,19%
same,mice having 2-5 mm metastasis in the liver,[1]; macroscopic analysis,6%
same,mice having 2-5 mm metastasis in the peritoneal wall,[1]; macroscopic analysis,19%
same,mice having <1 mm metastasis in the liver,[1]; macroscopic analysis,none
same,mice having >5 mm metastasis in the peritoneal wall,[1]; macroscopic analysis,19%
same,mice metastasis-free in the peritoneal wall,[1]; macroscopic analysis,44%
same,animals free of metastases in the lung,[1]; microscopic analysis,44%
same,mean metastasis number in the lungs per mouse,[1]; microscopic analysis,1.6
same,weight of mice throughout the treatment period,"[1]; mouse, in vivo",remained the same
same,total number of metastases counted,"[1]; visual inspection of organs, sum per group",29
same,binding to cells overexpressing human CD36 (FACS),[2]; antibodies at 100 nM,bound equivalently
same,binding to cells overexpressing human CD36 (FACS),[2]; serial dilution up to 100 nM,specifically bound
same,average primary tumor weight,[3]; 3 mg/kg i.p. daily,1.058 g
same,decrease of primary tumor weight vs vehicle,[3]; 3 mg/kg i.p. daily,43%
same,SR (Sirius red) positive area of primary tumors,[3]; collagenous and fibrotic areas,22.5%
same,percent necrosis of primary tumors,"[3]; histology, pathologist quantification",approximately 40.71%
same,animals with large metastasis (>5 mm) in the peritoneal wall,[3]; macroscopic analysis,no large metastasis were detected
same,animals with no metastasis in the peritoneal wall,[3]; macroscopic analysis,63%
same,animals with small metastasis (1-2 mm) in the peritoneal wall,[3]; macroscopic analysis,38%
same,large liver metastasis,[3]; macroscopic analysis,6%
same,mice without metastasis in the liver,[3]; macroscopic analysis,50%
same,small liver metastasis,[3]; macroscopic analysis,44%
same,in vivo total tumor bioluminescence over time,"[4]; 3 mg/kg i.p. daily, day 21",reduced the growth of the tumor
same,"ex vivo luminescence, kidney",[4]; IVIS at sacrifice,1.08*10^6
same,"ex vivo luminescence, liver",[4]; IVIS at sacrifice,9.02*10^7
same,"ex vivo luminescence, lung",[4]; IVIS at sacrifice,1.24*10^6
same,"ex vivo luminescence, spleen",[4]; IVIS at sacrifice,1.79*10^8
same,body weight as percent of starting body weight,[4]; day 18,91.1%
same,"ex vivo primary tumor bioluminescence, average radiance",[4]; day 25,1.51*10^10
same,percentage of mice with tumors in their liver,[4]; ex vivo luminescence,60%
same,percentage of mice with tumors in their lungs,[4]; ex vivo luminescence,60%
